These results are taken from the nanobody polyreactivity screen of Harvey et al. (2022).

The nature of this data set: yeast display, Sf9 membrane polyspecificity reagent, FACS + sequencing; frameworks hold sequencing errors. Put shortly:
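A nanobody's polyreactivity label depends on the gate it was sorted from. Yeast display cells were stained with 10% biotinylated, detergent-solubilized Sf9 membrane reagent for 1 hour at 4 °C, enriched on streptavidin microbeads and sorted by FACS. The low and high (top ~1%) gates were set on anti-HA fluorescence for expression and streptavidin fluorescence for reagent binding.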
With “QVQLVESGGGLVQAGGSLRLSCAASGSIFGFYAMGWYRQAPGKERELVASITISGGSTYYADSVKGRFTISRDNAKNTVYLQLNSLKPEDTAVYYCAARRFWDYNYWGQGTQVTVSS”, the “polyreactivity (PSR sort gate)” value is “low polyreactivity”. The same measure for “QVQLVESGGGLVQAGGSLRLSCAASGSIFGGNAMGWYRQPPGKERELVAAITDGGNTNYADSVKGRFTISRDNAKNTVYLQMNSMKPEDTAVFYCAARIPGTYGGRYGYDYWGQGTQVTVSS”: “low polyreactivity”; for “QVQLVESGGGLVQAGGSLRLSCAASGSIFGGNTMGWYRQAPGKERELVAAIRYSGGSTYYADSVKGRFTISRDNAKNTVYLQMNSLKPEDTAVYYCATSYRQYGYYWYDYWGQGTQVTVSS”: “high polyreactivity”; for “QVQLVESGGGLVQAGGSLRLSCAASGSIFGGYAMGWYRPAPGKERELVAAISKTGGTTYYADSVKGRFTISRDNAKNTVYLQMKSLKPEDTAVYYCNAPKRYSGSAYGYGYWGQGTQVTVSS”: “high polyreactivity”.

For “QVQLVESGGGLVQAGGSLRLSCAASGSIFGGYAMGWYRQAPCQDRELVAAISTRGGSTYYADSVKGRFTISRDNAKNTVYLQMNSQKPEDTAVYYCAADYLDSSYGYVYGWDDYWGQGTQVNVSS”, the “polyreactivity (PSR sort gate)” value is given as “low polyreactivity”. The result for “QVQLVESGGGLVQAGGSLRLSCAASGSIFGGYAMGWYRQAPGKEREFVAAISRRGASTYYADSVKGRFTISRDNAKNTVYLQMNSLKPEDTAVYYCNARAYGRIDGHSATYGYWGQGTQVTVSS” reads “high polyreactivity”; that for “QVQLVESGGGLVQAGGSLRLSCAASGSIFGGYAMGWYRQAPGKERELVAAISFSGGSTYYADSVKGRFTISRDNAKNTVYSQMNSLKPEDTAVYYCAADPYYSYLFDYWGQGTQVTVSS”, “low polyreactivity”; that for “QVQLVESGGGLVQAGGSLRLSCAASGSIFGGYAMGWYRQAPGKERELVAAISRSGGRTYYADSVKGRFTISRDNAKNTVYLQMNSLKPEDTAVYYCNRVTGYDSGDGYWGQGTQVTVSS”, “high polyreactivity”. Turning to “QVQLVESGGGLVQAGGSLRLSCAASGSIFGGYAMGWYRQAPGKERELVAAISSGGSTYYADSVKGRFTISRDNAKNTVYLQMKSLKPEDTAVYYCATSTYAYRRNSYYYTRPRFGYWGQGTQVTVSS”, the “polyreactivity (PSR sort gate)” value is given as “high polyreactivity”. The result for “QVQLVESGGGLVQAGGSLRLSCAASGSIFGGYAMGWYRQAPGKERELVAAISSSGVRTYYADSVKGRFTISRDNAKNTVYLQMNSLKPEDTAVYYCAADRSRSIIPFDYWGQGTQVTVSS” reads “low polyreactivity”. Take “QVQLVESGGGLVQAGGSLRLSCAASGSIFGGYAMGWYRQAPGKERELVADISGSGGGTYYADSVKGRFTISRDNAKNTVYLQMNSLKPEDTAVYYCARRPRTYKHWFGYWGQGTQVTVSS”: the “polyreactivity (PSR sort gate)” value was “low polyreactivity”. The result for “QVQLVESGGGLVQAGGSLRLSCAASGSIFGGYAMGWYRQAPGKERELVAGITYSGDSTYYADSVKGRFTISRDNAKNTVYLQMNSLKPEDTAVYYCNADQRVDHDDFDYWGQGTQVTVSS” reads “low polyreactivity”; that for “QVQLVESGGGLVQAGGSLRLSCAASGSIFGGYAMGWYRQAPVKERELVARIRVSGGRTYYSDSVKGRFTISRDNAKNTVYLQRNSLKPEDTAVYYCNALLAGRRVARGYDSWGQGTQVTVSS”, “high polyreactivity”. With “QVQLVESGGGLVQAGGSLRLSCAASGSIFGGYTMGWYRQAPGKERELVAAISRRGGNTYYADSVKGRFTISRDNAKNTVYLQMNSLKPEDTAVYYCAVRWPSARIPVKLDYWGQGTQVTVSS”, the “polyreactivity (PSR sort gate)” value is “high polyreactivity”. For “QVQLVESGGGLVQAGGSLRLSCAASGSIFGIYAMGWYRQAPGKERELVAAISKSGGGTYYADSVKGRFTISRDNAKNTVYLQMNSLKPEDTAVYYCNADYWQWYSYWYDYWGQGTQVTVSS”, the “polyreactivity (PSR sort gate)” value is on record as “high polyreactivity”. As to “QVQLVESGGGLVQAGGSLRLSCAASGSIFGIYTMGWYRQAPGKERELVAAIRRSGSTNYADSVKGRFTISRDNAKNTVYLQMNSLKPEDTAVYYCAADALSDEYDYWGQGTQVTVSS”, the “polyreactivity (PSR sort gate)” value was “low polyreactivity”. On to “QVQLVESGGGLVQAGGSLRLSCAASGSIFGKNAMGWYRQAPGKERELVAAITRRGGSTYYADSVKGRFTISRDNAKNTVYLQMNSLKPEDTAVYYCNALLTGGYQDSYPDDYWGQGTQVTVSS”, for which the “polyreactivity (PSR sort gate)” value is “high polyreactivity”. For the sequence “QVQLVESGGGLVQAGGSLRLSCAASGSIFGLNAMGWYRQAPGKERELVAASSVSGTRTYYADSVKGRFTISRDNAKNTGYVQMNSLKPEDTAVYYCATRRYIFYSPYRYGYWGQGTHVTVSS”, the “polyreactivity (PSR sort gate)” value is listed as “high polyreactivity”. The result for “QVQLVESGGGLVQAGGSLRLSCAASGSIFGLYAMGWYRQAPGKEREFVASITYSGGSTYYADSVKGRFTISRDNAKNTVYLQMTSLKPEDTAVYYCAAESYWGYDYWGQGTQVTVSS” reads “high polyreactivity”; that for “QVQLVESGGGLVQAGGSLRLSCAASGSIFGLYAMGWYRQAPGKERELVAAINQSGGSTSYADSVKGRFTISRDNAKNTVYLQMNSLKPEDTAVYYCNRVRLNSEGFDYWGQGTQVTVSS”, “low polyreactivity”. The result for “QVQLVESGGGLVQAGGSLRLSCAASGSIFGLYAMGWYRQAPGKERELVAAINWNGGDTYYADSVKGRFTISRDYAKNTVYLQMNSLIAVDNAVYYCAAYPRDPYKEYDYLGQGTQVTVSS” reads “low polyreactivity”; that for “QVQLVESGGGLVQAGGSLRLSCAASGSIFGLYAMGWYRQAPGKERELVATITSGTNTYYADSVKGRFTISRDNAKNTVYLQMNSLKAEDTAVYYCAKSYIAWDGRTFEEMNYWGQGTLVTVSS”, “low polyreactivity”; that for “QVQLVESGGGLVQAGGSLRLSCAASGSIFGLYAMGWYRQAPGKERELVAVITYSVGTTYYADSVKGRFTISRDNAKNTVYLQMNSLKPEDTAVYYCAADLYWYYPWSAYYGEYDYWGQGTQVTVSS”, “low polyreactivity”. The same measure for “QVQLVESGGGLVQAGGSLRLSCAASGSIFGLYAMGWYRQAPGKEREVFADITIGGSTYYADSVKGRFTISRDNAKNTVYLQMNSLKPEDTAVYYCASRPGSWYPSVPSYNYWGQGTQVTVSS”: “low polyreactivity”. In the case of “QVQLVESGGGLVQAGGSLRLSCAASGSIFGNNAMGWYRQAPGKERELVAAITSGGSTTYADSVKGRFTISRDNAKNTVYLLMNSLKPEDTAVYYCAATPVWGFVWEYNYWGQGTQVTVSS”, the “polyreactivity (PSR sort gate)” value is given as “low polyreactivity”.

In the case of “QVQLVESGGGLVQAGGSLRLSCAASGSIFGNNVMGWYRQAPGKERELVAAITSGTSTYYADSVKGRFTISRDNAKNTVYLQMNSLKPEDTAVYYCAALWSSRYVVHPQWYDYWGQGTQVTVSS”, the “polyreactivity (PSR sort gate)” value is “low polyreactivity”. The result for “QVQLVESGGGLVQAGGSLRLSCAASGSIFGNYVMGWYRPAPGKERELVAAISWSGGTNYADSVKGRFTISRDNAKNTVYLQMNSLKPEDTAVYYCAALSVWSYYTYYYWGQGTQVTVSS” reads “high polyreactivity”. In the case of “QVQLVESGGGLVQAGGSLRLSCAASGSIFGPNAMGWYRQAPGKERELGAAISWRGGSTYYADSVKGRFTISRDTAKNTVYLQMNSLKPEDTAVYYCNKYLTWAEGLPGYDYWGQGTQVTVSS”, the “polyreactivity (PSR sort gate)” value was “high polyreactivity”. The result for “QVQLVESGGGLVQAGGSLRLSCAASGSIFGPYVKGWYRQAPGTERELVASITSSGGSTYYADTVKGRFTISRDNAKNTVYIQMNSLKPEDTAVYYCNAVRFTPTNSHRYYWGQGTQVTVSS” reads “high polyreactivity”; that for “QVQLVESGGGLVQAGGSLRLSCAASGSIFGRNAMGWYRQAPGKERELVAAIRTRGGSTYYADSVKGRFTNSRDIAKNSVYLQMNSLKPEDTAVYYCAAPGGGKEVDYWGQGTQVTVSS”, “low polyreactivity”; that for “QVQLVESGGGLVQAGGSLRLSCAASGSIFGRNAMGWYRQAPGKERELVAAITWSGDSTYYADSVKGRFTISRDNAKNSVYLQMNSLKPEVTAVYYCAVKSYVPYLSYIYSFGYWGQGTQVTVSS”, “low polyreactivity”. For “QVQLVESGGGLVQAGGSLRLSCAASGSIFGRNAMGWYRQAPGKERELVADIWNGGSTYYADAVKGRFTISRDNAKNTVYLQMNSLKPEDTAVYYCNADADDVGRFGGYIKYDYWGQGTQVTVSS”, the “polyreactivity (PSR sort gate)” value was “low polyreactivity”. The same measure for “QVQLVESGGGLVQAGGSLRLSCAASGSIFGRNDMGWYRQAAGKERELVAAISKRGGRTYYADSVKGRFTISRDNAKNTVYLQMNSLKPEDTAVYYCAADQPTLAYPGGYSAGMDYWGQGTQVTVSS”: “high polyreactivity”; for “QVQLVESGGGLVQAGGSLRLSCAASGSIFGRNDMGWYRQAPGKERELVAAISGDTTTNYADSVKGRFTISRDNAKNTVYLQMNSLKPEDTAVYYCAAKYGYRRGTVRGYTRVYYWGQGTQVTVSS”: “high polyreactivity”. Regarding “QVQLVESGGGLVQAGGSLRLSCAASGSIFGRNVMGWYRQAPGKERELVAAISEGGGRTYYADSVKGRFTISRDNAKNTVYLQMNSLKPEDTAVYYCAAAYFSSGYKYYYWGQGTQVTVSS”, the “polyreactivity (PSR sort gate)” value is “high polyreactivity”. In the case of “QVQLVESGGGLVQAGGSLRLSCAASGSIFGRYAMGWYRQAPGKERELVAAISANGGSTYYADSVKGRFTISRDNAKNTVYLQMNSLKPEDTAVYYCAAGSTRGYKLGYWGQGTQVTVSS”, the “polyreactivity (PSR sort gate)” value is reported as “high polyreactivity”. The result for “QVQLVESGGGLVQAGGSLRLSCAASGSIFGSNAMGWYRQALGKERELVAAISDSTGSTYYADSVKGRFTISRDNAKNTVYLQMNSLKPEDTAVYYCDARTYYYRWHIYDYWGQGSQVTVSS” reads “low polyreactivity”; that for “QVQLVESGGGLVQAGGSLRLSCAASGSIFGSNGMGWSRQAPGKERELVAAISSGDSTNYADSVKGRFTISRDNAKNTVYLQMNSLKPEDTAVYSCERWGLGDYWGQGTQVTVSS”, “low polyreactivity”. The same measure for “QVQLVESGGGLVQAGGSLRLSCAASGSIFGSYAMGWYRQAPGKERELVAAISYRGGRTYYADSVKGRFTISRDNAKNTVYLQMNSLKPEDTAVYYCNARARNSPPYDYWGQGTQVTVSS”: “high polyreactivity”.

For the sequence “QVQLVESGGGLVQAGGSLRLSCAASGSIFGSYAMGWYTQAPGKERELVAAITRAGSTNYADSVKGRFTISRDNAKNTVYLQINSLKPEDTAVFYCAVRPGFGRSLWYGYWGQGTQVTVSS”, the “polyreactivity (PSR sort gate)” value is “low polyreactivity”.
